According to patent publication US20250027068A1 (published 2025):

Molecular target: pooled human IgG (human IgG1, 2, 3 and 4) (human)
Experiment: cell-based or functional assay
Note: test concentration or dose not given here.

B1: PRT-396 (enzyme)
chain: MVTSVWTKGVTPPADFTQGEDVFHAPYVANQGWYDITKTFNGKDDLLCGAATAGNMLHWWFDQNKEYIEAYLKKHPEKQKIMFGDQELLDVRKAINTKGSQKNSELFNYFRDKAFPNLSARRLGVMPDLVLDMFINGYYLNVTKTQTTDVNRTYQEKDKRGGIFDAVFTRGDQSKLLTSRHDFKEKGLKEISDLIKQELTEGKALGLSHTTANVRINHVINLWGADFDSDGNLKAIYVTDSDSNASIGMKKYFVGVNSAGKVAISAKEIKEDNIGAQVLGLFTLSTGQDIWNQTN
Enzyme Activity Endpoint Assay: Fab′2: 0 ng/µL | Enzyme Activity Endpoint Assay: Fc: 92 ng/µL | Enzyme Activity Endpoint Assay: IgG: 1010 ng/µL | Enzyme Activity Endpoint Assay: scIgG: 215 ng/µL
